US8263326B2, “Compounds and methods for modulating activation of NF-κB” (Signal Pharmaceuticals, LLC, priority 1998, dated 2012)
Non-standard residues stand in square brackets, D forms with d. No end group written: not given here. pS = N[C@@H](COP(=O)(O)O)C(=O)O

Key:
β-TrCP = target: T1, β-TrCP (Homo sapiens, UniProt Q9Y297); test: Peptide competition of β-TrCP binding to pIκBα; conditions: FIG. 11B
T1 construct: made in house; host or cells: transfected 293 (293T) cells, immunoprecipitated through FLAG
T1 sequence (P63208 whole entry partner, one chain of several): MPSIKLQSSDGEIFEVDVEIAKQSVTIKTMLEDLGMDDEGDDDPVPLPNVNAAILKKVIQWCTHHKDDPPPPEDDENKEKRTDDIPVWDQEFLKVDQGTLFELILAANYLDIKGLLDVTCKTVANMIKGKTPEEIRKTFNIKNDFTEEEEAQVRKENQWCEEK
Protocol: (§1) FIGS. 11A-11C are Western blots illustrating binding and ubiquitination specificity of E3 ubiquitin ligase family members. Within these figures, mβ-TrCP indicates mouse β-TrCP, hβ-TrCP indicates human β-TrCP, Δβ-TrCP indicates human β-TrCP with a deletion of the F box region and Slimb indicates the Drosophila Slimb protein. FIG. 11A illustrates selective binding to pIκBα. Proteins were immunoprecipitated through a FLAG epitope from transfected 293T cells, incubated with immunopurified IκBα/NF-κB complex, which had been treated (−/+IKK) as indicated and the bound material was analyzed by Western blotting with the indicated antibodies. […] FIG. 11C illustrates in vitro ubiquitination of pIκBα by the E3 family member proteins. Immunopurified FLAG-tagged proteins were incubated with ^35 S-labeled IκBα/NF-κB complexes, treated (−/+IKK) as indicated and subject to ubiquitination in the presence of ATPγS, ubiquitin. E1 and UBC5C. The IκBα substrate (composed of full-length and two degradation products), pIκBα-polyubiquitin conjugates and molecular size markers are indicated on the left.
The ability of these proteins to bind pIκBα specifically and assist in its ubiquitination was examined in a cell-free system. […] The bound material was analyzed by Western blotting with anti-IκBα and anti-FLAG antibodies. […]

[1] = test system: pIκBα-associated ubiquitin-ligase; test: In vitro ubiquitination of pIκBα/NF-κB complex immunopurified from TNFα-stimulated HeLa cells with E1 and UBC5C; format: biochemical, human; conditions: Bestatin 40 μg/ml, FIG. 5
Protocol: To further study the recruitment of components of the ubiquitin machinery by phosphorylated IκBα-complexes, pIκBα/NF-κB complexes were purified from proteasome inhibited, TNF-α stimulated HeLa cells, and their ubiquitination potential was evaluated. HeLa cells were pre-incubated with the proteasome inhibitor ALLN (150 μM) for 1 hour and stimulated for 10 minutes with TNFα. […]
The immunopurified fraction was supplemented with various components of the ubiquitin system and subjected to in vitro ubiquitination. […] The reaction mix was then boiled in SDS-buffer and the sample analyzed by SDS-PAGE (8.5%) and phospho-imaging.
To determine the source of the IκBα-conjugates, the ubiquitination reactions were performed in the presence of a pIκBα peptide (pp12; CDRHDS[PO3]GLDS[PO3]; SEQ ID NO:22) (lane 7) or a serine/glutamic-acid substituted IκBα peptide (p12S/E) (lane 8). Both peptides were synthetic, purchased from Alfa-Diagnostic, Inc., and then HPLC-purified, analyzed by mass spectrometry, verified for the predicted structure and proven to be over 85% pure. […]

[2] = test system: ubiquitin-ligase activity associated with the pIκB-complex; test: Recruitment of ubiquitin-ligase activity from HeLa lysate to IKK2-EE phosphorylated IκBα/NF-κB complex; format: biochemical, human; conditions: peptide included in incubation with HeLa lysate, FIG. 6
Protocol: Following immunoprecipitation of ^35S-labeled IκBα/NF-κB complexes from a non-stimulated HeLa lysate previously incubated with recombinant ^35S-labeled IκBα, the complexes were phosphorylated by the recombinant IKK2-EE, eluted with the p65 cognate peptide and subjected to in vitro ubiquitination. After incubation with IKK2-EE, nearly all of the ^35S-IκB was phosphorylated. […] Therefore, IκB phosphorylation by IKK was not sufficient to promote its ubiquitination in the presence of E1 and E2. Conceivably, pIκBα ubiquitination requires an additional component of the HeLa lysate that was not co-immunopurified from non-stimulated cells.
To confirm this hypothesis, immuno-bound IκBα/NF-κB complexes were incubated with a non-stimulated HeLa lysate, either directly or following IKK2-EE phosphorylation, washed extensively with high-salt buffer and eluted with the p65 peptide. Indeed, incubation of the phosphorylated IκB complexes (FIG. 6 lane 3), but not of the non-phosphorylated ones (lane 1), with the HeLa lysate, provided the pIκB-ligase component(s) necessary for pIκBα conjugation. No signal was obtained when E1 or E2 were omitted from the reaction, confirming that the signal at the top of the gel represents poly-ubiquitin IκBα-conjugates (lanes 5, 6). […]

[3] = test system: pIκBα-associated proteins (p54, p58, p61, 64 kD); test: Association of 35S-labeled HeLa lysate proteins with immuno-bound pIκBα/NF-κB complex (SDS-PAGE, autoradiography); format: binding, human; conditions: peptide added to radiolabeled HeLa lysate, FIG. 7B
Protocol: HeLa extract (250 mg) was incubated with 250 μl anti-p65 immunobeads. Following four washes in buffer A (1M KCl, 0.5% NP40, 50 mM Tris buffer pH 7.6, 1 mM DTT) and one wash in buffer B (50 mM Tris buffer, pH 7.6, 1 mM DTT), half the beads were subject to in vitro phosphorylation with IKK and half underwent mock-phosphorylation. The beads were washed twice in buffer A and once in buffer B, agitated with 100 mg HeLa extract in the presence of 1 μm okadaic acid for 30 min at 25° C., washed four times with buffer A, once in buffer A and eluted with 1 mg/ml p65 peptide. A similar experiment was performed with 10 mg ^35 S-metabolically-labeled HeLa cell lysate (100 μCi/ml Met/Cys for 8 hours) and 25 μl p65-immunobeads. Eluate-fractions derived from both the hot and cold lysates were mixed, boiled in SDS-sample buffer and analyzed by 7.5% SDS-PAGE and autoradiography. Gel slices corresponding to the autoradiogram signals were excised and their protein-bands sequenced by mass-spectrometry, as described below.
To circumvent the possible masking of the putative pIκB-ubiquitin ligase, we replaced the ligase source with ^35S-biosynthetically-labeled HeLa lysate and traced the IκBα-associated proteins by SDS-PAGE analysis and autoradiography (FIG. 7B). In parallel, the various fractions were tested for their ubiquitin-ligase capacity. […]

[4] = test system: NF-κB activation in Jurkat cells; test: κB-dependent luciferase assay in P/I-stimulated Jurkat cells; format: cell-based; conditions: transient over-expression in stimulated Jurkat cells
Excerpt: FIGS. 12A and 12B illustrate inhibition of IκBα degradation and NF-κB activation by overexpression of Δβ-TrCP, a dominant negative molecule. FIG. 12A is a graph depicting the results of a κB-dependent luciferase assay in P/I-stimulated Jurkat cells transfected with κB-Luc reporter plasmid and the indicated expression vectors (i.e., from left to right, vector alone, vector encoding human β-TrCP, vector encoding human β-TrCP with a deletion of the F box region and vector encoding Drosophila Slimb protein). NF-κB activity is shown as relative (fold) luciferase activity, the non-stimulated empty FLAG vector being the reference (single-fold). FIG. 12B depicts the results of western blot analysis of IκBα of phorbol-ester and Ca^++ ionophore [P/I]-stimulated and non-stimulated Jurkat cells transfected with an empty FLAG vector or Δβ-TrCP. The post-stimulation interval (min) is indicated.

pIκBα = target: T2, pIκBα (Homo sapiens, UniProt P25963); test: Binding of immobilized FLAG-tagged E3 family members to IκBα/NF-κB complex (Western blot); conditions: FIG. 11A
T2 construct: The IκBα/NF-κB complex was immunopurified from HeLa cells; endogenous in cells; host or cells: HeLa cells
T2 sequence (P25963 whole entry): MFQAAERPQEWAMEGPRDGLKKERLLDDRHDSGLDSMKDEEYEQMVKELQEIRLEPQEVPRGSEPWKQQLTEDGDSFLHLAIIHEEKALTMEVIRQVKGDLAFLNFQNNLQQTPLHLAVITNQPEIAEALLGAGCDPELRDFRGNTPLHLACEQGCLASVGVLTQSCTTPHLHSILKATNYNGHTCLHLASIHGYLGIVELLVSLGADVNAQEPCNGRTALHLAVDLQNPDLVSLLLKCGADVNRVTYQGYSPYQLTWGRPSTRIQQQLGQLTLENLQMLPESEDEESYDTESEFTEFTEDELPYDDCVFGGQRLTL
T2 sequence (Q04206 whole entry partner): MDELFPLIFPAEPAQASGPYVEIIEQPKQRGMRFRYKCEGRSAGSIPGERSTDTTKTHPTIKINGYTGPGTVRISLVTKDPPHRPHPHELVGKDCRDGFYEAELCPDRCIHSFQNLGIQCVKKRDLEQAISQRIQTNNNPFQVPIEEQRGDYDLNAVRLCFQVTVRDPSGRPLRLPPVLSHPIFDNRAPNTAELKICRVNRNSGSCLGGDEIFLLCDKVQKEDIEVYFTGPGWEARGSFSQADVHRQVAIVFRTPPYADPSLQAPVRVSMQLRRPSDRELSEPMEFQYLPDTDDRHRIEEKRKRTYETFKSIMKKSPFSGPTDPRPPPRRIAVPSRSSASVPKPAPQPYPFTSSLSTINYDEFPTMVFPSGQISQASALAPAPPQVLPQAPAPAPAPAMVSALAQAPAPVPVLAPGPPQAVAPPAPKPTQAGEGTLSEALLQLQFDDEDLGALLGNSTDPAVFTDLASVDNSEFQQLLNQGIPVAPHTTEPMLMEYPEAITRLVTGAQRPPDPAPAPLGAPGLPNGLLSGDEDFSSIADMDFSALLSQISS
Protocol: as §1
The ability of these proteins to bind pIκBα specifically and assist in its ubiquitination was examined in a cell-free system. The IκBα/NF-κB complex was immunopurified from HeLa cells and the immune complex was either phosphorylated with IKK2-EE or mock-phosphorylated as described above. It was then incubated with the following immobilized FLAG-tagged E3 family members immunoprecipitated from transfected 293 cells: mouse β-TrCP (mβ-TrCP), human β-TrCP (hβ-TrCP), human β-TrCP with a deletion of the F box region residues 122-168 (Δβ-TrCP) and the Drosophila Slimb protein. The bound material was analyzed by Western blotting with anti-IκBα and anti-FLAG antibodies. […] Furthermore, β-TrCP binding was abrogated by a peptide representing the pIκBα recognition motif (pp10; DRHDS(PO3)GLDS(PO3)M (SEQ ID NO:29); see FIG. 11B, lane 3), but not by the control peptide (lane 4), specifying the site of pIκBα recognition of the conserved DS(PO3)GLDS(PO3) (SEQ ID NO:30) sequence.

pp10: peptide representing the pIκBα recognition motif, DRHDS(PO3)GLDS(PO3)M, SEQ ID NO:29 (DRHD[pS]GLD[pS]M; listed as Homo sapiens)
effect of peptide on β-TrCP-pIκBα binding (β-TrCP): abrogated

pp12: pIκBα peptide CDRHDS[PO3]GLDS[PO3]; SEQ ID NO:22 (CDRHD[pS]GLD[pS]; listed as Homo sapiens)
formation of polyubiquitin-IκBα conjugates [1]: abolished
ubiquitin-ligase activity associated with the pIκB-complex [2]: abrogated
association of distinctive 35S-protein bands with pIκBα [3]: three bands were eliminated

B1: hβ-TrCP: FLAG-tagged human β-TrCP, E3 family member (protein)
chain: MDPAEAVLQEKALKFMNSSEREDCNNGEPPRKIIPEKNSLRQTYNSCARLCLNQETVCLASTAMKTENCVAKTKLANGTSSMIVPKQRKLSASYEKEKELCVKYFEQWSESDQVEFVEHLISQMCHYQHGHINSYLKPMLQRDFITALPARGLDHIAENILSYLDAKSLCAAELVCKEWYRVTSDGMLWKKLIERMVRTDSLWRGLAERRGWGQYLFKNKPPDGNAPPNSFYRALYPKIIQDIETIESNWRCGRHSLQRIHCRSETSKGVYCLQYDDQKIVSGLRDNTIKIWDKNTLECKRILTGHTGSVLCLQYDERVIITGSSDSTVRVWDVNTGEMLNTLIHHCEAVLHLRFNNGMMVTCSKDRSIAVWDMASPTDITLRRVLVGHRAAVNVVDFDDKYIVSASGDRTIKVWNTSTCEFVRTLNGHKRGIACLQYRDRLVVSGSSDNTIRLWDIECGACLRVLEGHEELVRCIRFDNKRIVSGAYDGKIKVWDLVAALDPRAPAGTLCLRTLVEHSGRVFRLQFDEFQIVSSSHDDTILIWDFLNDPAAQAEPPRSPSRTYTYISR
modifications: left off: small tags and cut ends
notes: FLAG-tagged human β-TrCP, E3 family member
activation of NF-κB [4]: not inhibitory
relative binding of IκBα / pIκBα (pIκBα; comparison between family members): far better than the highly homologous Drosophila protein
binding to IKK-phosphorylated versus mock-phosphorylated IκBα (pIκBα; FLAG-tagged protein from transfected 293 cells): exclusively bound IKK-phosphorylated, but not mock-phosphorylated, IκBα
